Sequences and labels used below:
B1: UPF2-AL (domain or fragment, human, UniProt Q9HAU5 1015-1106, looked up)
chain: NDKDSKDSMTEGENLEEDEEEEEGGAETEEQSGNESEVNEPEEEEGSDNDDDEGEEEEEENTDYLTDSNKENETDEENTEVMIKGGGLKHVP
modifications: 15N-labelled (15N/13C for the assignments) in the NMR experiments

Assay [1] concerns the target T1, 3’hExofl (human, UniProt Q8IV48 1-349).
T1 sequence (looked up): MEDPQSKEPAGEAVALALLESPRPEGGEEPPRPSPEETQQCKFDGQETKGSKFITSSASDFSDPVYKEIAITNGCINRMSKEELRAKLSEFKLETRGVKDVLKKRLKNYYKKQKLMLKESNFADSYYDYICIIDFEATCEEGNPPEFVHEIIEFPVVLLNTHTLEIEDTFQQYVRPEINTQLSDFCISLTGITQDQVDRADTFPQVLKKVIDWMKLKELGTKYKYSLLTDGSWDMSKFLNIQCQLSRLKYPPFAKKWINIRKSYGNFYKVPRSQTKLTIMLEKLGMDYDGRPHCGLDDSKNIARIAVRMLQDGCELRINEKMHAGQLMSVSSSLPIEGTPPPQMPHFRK
Description: SEC. (In general: In gel filtration, larger molecules generally elute earlier.)

A further assay concerns the target T2, 3’hExo nuclease domain (human, UniProt Q8IV48 124-349).
T2 sequence (looked up): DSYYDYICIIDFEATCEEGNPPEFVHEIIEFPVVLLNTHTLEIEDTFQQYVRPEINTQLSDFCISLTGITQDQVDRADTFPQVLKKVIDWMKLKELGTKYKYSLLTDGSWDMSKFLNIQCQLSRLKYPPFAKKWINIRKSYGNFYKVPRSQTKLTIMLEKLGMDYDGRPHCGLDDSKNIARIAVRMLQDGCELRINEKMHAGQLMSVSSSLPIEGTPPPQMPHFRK
The assay is described as follows: NMR titration.

In assay [2] the target is T1, 3’hExofl. The assay is described as follows: NMR titration.
In the assay “UPF2-AL” the target is B1. The assay is described as follows: NMR titration.
In assay [3] the target is UPF2 (construct of the SPR experiment not stated) (human). Description: SPR. Background: In SPR one partner is held on a chip, and binding of the other changes the refractive index at the surface.
UPF2 (construct of the SPR experiment not stated) (human), sequence (Q9HAU5 whole entry): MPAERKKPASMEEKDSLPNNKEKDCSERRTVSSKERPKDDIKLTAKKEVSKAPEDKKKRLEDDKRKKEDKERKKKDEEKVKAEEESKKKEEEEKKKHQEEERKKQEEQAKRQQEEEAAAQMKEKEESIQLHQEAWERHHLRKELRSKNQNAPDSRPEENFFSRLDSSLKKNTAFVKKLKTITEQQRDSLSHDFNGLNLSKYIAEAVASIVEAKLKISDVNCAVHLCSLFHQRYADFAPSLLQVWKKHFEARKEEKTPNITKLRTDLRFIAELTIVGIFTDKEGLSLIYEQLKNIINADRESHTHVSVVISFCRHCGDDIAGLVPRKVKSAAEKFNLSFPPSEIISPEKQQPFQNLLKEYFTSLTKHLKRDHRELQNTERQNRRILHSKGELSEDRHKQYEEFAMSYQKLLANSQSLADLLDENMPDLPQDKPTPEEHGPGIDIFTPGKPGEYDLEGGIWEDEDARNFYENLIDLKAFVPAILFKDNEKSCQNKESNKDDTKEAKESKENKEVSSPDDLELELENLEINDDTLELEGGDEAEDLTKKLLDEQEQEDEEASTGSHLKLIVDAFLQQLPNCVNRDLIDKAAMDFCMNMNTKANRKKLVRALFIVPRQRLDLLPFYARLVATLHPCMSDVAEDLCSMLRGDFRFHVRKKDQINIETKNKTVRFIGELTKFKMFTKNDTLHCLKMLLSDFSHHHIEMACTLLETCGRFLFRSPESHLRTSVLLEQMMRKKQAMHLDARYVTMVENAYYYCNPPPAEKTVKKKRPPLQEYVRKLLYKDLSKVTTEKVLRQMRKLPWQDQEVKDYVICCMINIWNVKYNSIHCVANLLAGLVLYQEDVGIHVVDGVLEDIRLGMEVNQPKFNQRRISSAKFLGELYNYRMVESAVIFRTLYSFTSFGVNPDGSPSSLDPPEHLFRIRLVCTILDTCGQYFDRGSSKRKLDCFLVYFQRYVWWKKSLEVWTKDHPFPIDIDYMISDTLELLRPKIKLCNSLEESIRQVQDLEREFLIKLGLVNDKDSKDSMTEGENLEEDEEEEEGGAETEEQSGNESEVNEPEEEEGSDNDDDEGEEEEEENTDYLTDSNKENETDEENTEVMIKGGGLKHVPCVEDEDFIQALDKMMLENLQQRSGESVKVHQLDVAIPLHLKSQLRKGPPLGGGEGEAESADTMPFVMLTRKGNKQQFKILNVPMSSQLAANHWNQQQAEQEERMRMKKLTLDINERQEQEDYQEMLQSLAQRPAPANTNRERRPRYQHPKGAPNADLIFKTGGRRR

Regarding B1, the binding result with 3’hExofl [1] and in the assay with 3’hExo nuclease domain was “binds” throughout.

B2: UPF2^1024-1085 (domain or fragment, human, UniProt Q9HAU5 1024-1085, looked up)
chain: TEGENLEEDEEEEEGGAETEEQSGNESEVNEPEEEEGSDNDDDEGEEEEEENTDYLTDSNKE
modifications: also: 15N-labelled
B2 had a Kd with 3’hExofl [2] of around 200 µM.

B3: 3’hExo SAP domain (domain or fragment, human, UniProt Q8IV48 63-124, looked up)
chain: DPVYKEIAITNGCINRMSKEELRAKLSEFKLETRGVKDVLKKRLKNYYKKQKLMLKESNFAD
B3: in the assay with UPF2-AL, the binding result is recorded as “binds”.

B4: 3’hExo (construct of the SPR experiment not stated) (enzyme)
chain: MEDPQSKEPAGEAVALALLESPRPEGGEEPPRPSPEETQQCKFDGQETKGSKFITSSASDFSDPVYKEIAITNGCINRMSKEELRAKLSEFKLETRGVKDVLKKRLKNYYKKQKLMLKESNFADSYYDYICIIDFEATCEEGNPPEFVHEIIEFPVVLLNTHTLEIEDTFQQYVRPEINTQLSDFCISLTGITQDQVDRADTFPQVLKKVIDWMKLKELGTKYKYSLLTDGSWDMSKFLNIQCQLSRLKYPPFAKKWINIRKSYGNFYKVPRSQTKLTIMLEKLGMDYDGRPHCGLDDSKNIARIAVRMLQDGCELRINEKMHAGQLMSVSSSLPIEGTPPPQMPHFRK
B4 showed a Kd in assay [3] of 170 µM.

What is called Kd is the constant that tells how readily two partners part at equilibrium. Read a low Kd as a tighter complex.

Source of the values: publication doi:10.1101/2025.02.23.639735 (bioRxiv, 2025).
